Values quoted from earlier work in PMC11111649.

Target: Angiotensin II (Homo sapiens) (UniProt P01019)
Chain of UniProt P01019 (P01019 whole entry, looked up): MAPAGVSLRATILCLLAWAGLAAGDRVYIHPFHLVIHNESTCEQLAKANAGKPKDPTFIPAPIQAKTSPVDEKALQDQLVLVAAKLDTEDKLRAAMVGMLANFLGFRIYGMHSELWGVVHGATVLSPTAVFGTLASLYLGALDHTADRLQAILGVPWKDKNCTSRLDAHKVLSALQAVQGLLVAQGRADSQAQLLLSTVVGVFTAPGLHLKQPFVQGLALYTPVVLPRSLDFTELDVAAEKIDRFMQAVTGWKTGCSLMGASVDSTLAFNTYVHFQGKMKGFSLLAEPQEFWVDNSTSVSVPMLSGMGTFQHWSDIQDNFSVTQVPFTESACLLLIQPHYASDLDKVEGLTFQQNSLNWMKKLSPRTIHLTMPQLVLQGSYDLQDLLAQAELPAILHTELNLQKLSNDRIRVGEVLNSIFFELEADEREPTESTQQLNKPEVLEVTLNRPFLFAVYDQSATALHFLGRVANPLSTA

## AT1R (from UniProt P30556)
  Kd: 1 nM
